Our source for the Kd, binding result and EC50 values is patent US20090299038A1 (LIVTECH, published 2009).

The target of assay [1] is T1, purified recombinant hFA-1 protein (hDlk-1 extracellular region) (human, UniProt P80370 24-303).
T1 construct: also called human FA1; FA-1 region of hDlk-1; not shown: C-terminal Myc tag and His tag from the pcDNA4/Myc-His vector
T1 sequence: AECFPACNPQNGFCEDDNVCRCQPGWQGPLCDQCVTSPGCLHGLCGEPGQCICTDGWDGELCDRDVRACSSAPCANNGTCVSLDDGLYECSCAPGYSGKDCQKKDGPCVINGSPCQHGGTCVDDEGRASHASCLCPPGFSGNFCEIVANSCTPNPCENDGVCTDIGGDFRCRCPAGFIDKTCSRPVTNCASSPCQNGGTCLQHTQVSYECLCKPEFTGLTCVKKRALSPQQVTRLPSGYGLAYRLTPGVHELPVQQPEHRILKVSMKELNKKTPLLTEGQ
Nature of the assay: ELISA method (Djavadi-Ohaniance): antibody 0.5 nM equilibrated with hFA-1 in solution, then added to immobilised hFA-1. For orientation: In an ELISA, binding on a coated surface is turned into a signal by an enzyme label.

In assay [2] the target is T2, hDlk-1 EGF-like motif deletion mutant EGF (5-6) expressed on COS-7 cells (human, UniProt P80370 170-245).
T2 construct: also called hDlk-1 (EGF 5-6)-pME18-CHFX
T2 sequence: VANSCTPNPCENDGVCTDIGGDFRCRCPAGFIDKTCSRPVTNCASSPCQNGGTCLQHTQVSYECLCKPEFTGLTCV
Kind of assay: FACS of transfected COS-7 cells.

In assay [3] the target is T3, hDlk-1 EGF-like motif deletion mutant EGF (4-6) expressed on COS-7 cells (human, UniProt P80370 131-244).
T3 construct: also called hdlk-EGF (4-6)/pME18S-CFHX
T3 sequence: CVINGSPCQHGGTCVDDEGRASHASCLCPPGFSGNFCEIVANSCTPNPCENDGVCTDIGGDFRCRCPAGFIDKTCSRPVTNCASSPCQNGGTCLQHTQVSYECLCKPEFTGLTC
Kind of assay: FACS of transfected COS-7 cells.

For assay [4], the target named is T1, purified recombinant hFA-1 protein …. Kind of assay: ELISA, antibody dilution series on immobilised hFA-1.

Changes are numbered by the printed parent chain. Several values for one entry are separate records, joined by “and”; a condition that tells them apart may be missing. Equal values may be shown once. Some results are limits rather than exact numbers.

B1: mouse anti-hDlk-1 monoclonal antibody clone DI-2-14 (antibody, V domains shown)
VH: EVQLQQSGAELVKPGASVKLSCTASGFNIRDTYIHWVKQRPEQGLEWIGRIDPPNGNLKYDPKFQGKATITADTSSNTAYLQFSSLTSEDTAVYYCARSDGYSFAYWGQGTLVTVSA
VL: DIVMTQAAPSVPVTPGESVSISCRSSKSLLHSNGNTYLYWFLQRPGQSPQLLIYRMSNLASGVPDRFSGSGSGTAFTLRISRVEAEDVGVYYCMQHVEYPFTFGSGTKLEIK
notes: also called mouse DI-2-14 antibody; clone DI-2-14 (mouse IgG1)
In the case of B1, the Kd (usually a measure of binding affinity in units of concentration) in assay [1] is 4.02 nM and 9.26 nM. Besides, the binding result in assay [2] and in assay [3] was “no binding” throughout. Further, the EC50 – broadly, the concentration needed to bring the measured effect to its halfway point – in assay [4] was under 0.01 µg/mL.

B2: humanized anti-hDlk-1 monoclonal antibody HuDI-2-14-1 (antibody, V domains shown)
VH: QVQLVQSGAEVKKPGSSVKVSCKASGFNIRDTYIHWVRQAPGQGLEWIGRIDPPNGNLKYDPKFQGKATITADTSTSTAYMEFSSLRSEDTAVYYCARSDGYSFAYWGQGTLVTVSS
VL: B1 VL with A7S, A8P, P9L, V11L, S18P, V19A, R44K, R79K, S105Q, L109V
notes: also called HuDI-2-14-1 IgG1/κ
On to B2, for which the Kd in assay [1] was determined as 2.8 nM. Moreover, the EC50 in assay [4] is under 0.01 µg/mL.

B3: mouse-human chimeric DI-2-14 antibody (ChDI-2-14) (antibody, V domains shown)
VH: B1 VH
VL: B1 VL
notes: also called DI-2-14 IgG1/κ
In the case of B3, the Kd in assay [1] was found to be 3.4 nM. The EC50 in assay [4] is under 0.01 µg/mL.

B4: humanized anti-hDlk-1 monoclonal antibody HuDI-2-14-2 (antibody, V domains shown)
VH: B2 VH with F83L
VL: B1 VL with A7S, A8P, P9L, V11L, S18P, V19A, R44K, R79K, S105Q, L109V
notes: also called HuDI-2-14-2 IgG1/κ
For B4, in assay [1], the Kd is 3.1 nM. For the same molecule, the EC50 in assay [4] is under 0.01 µg/mL.
